Values of other authors as cited in patent publication US20040063697A1, “Compositions of cyclooxygenase-2 selective inhibitors and thrombolytic agents for the treatment or prevention of a vaso-occlusive event” (priority 2002, published 2004).

Legend:
[1] = system: vascular smooth muscle cells; conditions: in vitro
minimal lumen diameter = conditions: single dose intravenous pretreatment before coronary stenting, at 6 months
plasminogen = plasminogen (Homo sapiens, UniProt P00747)
[2] = for Antigenicity: in vivo; for immune response: when administered to a human
[3] = for Elimination / Half-Life: in vivo
[4] = system: coronary intimal proliferation; conditions: oral administration, swine model of restenosis
restenosis = conditions: orally administered, stent implanted pig arteries

Chain of plasminogen (P00747 20-810 limits assumed): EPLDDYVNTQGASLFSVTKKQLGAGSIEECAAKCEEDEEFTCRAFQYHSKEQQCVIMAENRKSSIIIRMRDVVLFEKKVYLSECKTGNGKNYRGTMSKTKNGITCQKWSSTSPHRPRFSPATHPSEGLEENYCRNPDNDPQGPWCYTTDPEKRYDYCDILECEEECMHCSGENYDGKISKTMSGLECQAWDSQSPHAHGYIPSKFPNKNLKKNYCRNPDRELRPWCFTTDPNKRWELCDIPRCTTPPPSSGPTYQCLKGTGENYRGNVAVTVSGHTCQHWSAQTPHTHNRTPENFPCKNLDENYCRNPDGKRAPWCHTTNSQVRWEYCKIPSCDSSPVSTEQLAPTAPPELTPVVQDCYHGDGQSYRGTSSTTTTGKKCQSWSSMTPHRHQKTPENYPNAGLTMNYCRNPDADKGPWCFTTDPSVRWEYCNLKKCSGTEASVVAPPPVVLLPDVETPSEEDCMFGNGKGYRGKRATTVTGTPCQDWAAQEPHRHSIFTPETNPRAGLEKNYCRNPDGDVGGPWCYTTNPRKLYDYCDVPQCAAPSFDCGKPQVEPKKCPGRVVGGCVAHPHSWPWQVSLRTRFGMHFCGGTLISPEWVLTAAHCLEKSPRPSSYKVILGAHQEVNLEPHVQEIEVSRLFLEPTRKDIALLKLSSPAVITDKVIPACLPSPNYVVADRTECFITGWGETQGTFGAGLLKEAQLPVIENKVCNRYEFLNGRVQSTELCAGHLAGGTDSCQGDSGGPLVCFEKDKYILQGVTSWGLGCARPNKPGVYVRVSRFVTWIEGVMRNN

Compound | activation of fibrin-bound plasminogen versus circulating plasminogen (plasminogen) | Method of Plasminogen Activation (plasminogen) | Antigenicity [2] | immune response [2] | Elimination [3] | Half-Life [3] [min] | further results
COc1cc(/C=C/C(=O)CC(=O)/C=C/c2ccc(O)c(OC)c2)ccc1O [curcumin] |  |  |  |  |  |  | proliferation of vascular smooth muscle cells [1]: reduced proliferation
C[C@H]1C[C@@H]2[C@H]([C@@H](O)C[C@@]3(C)[C@H]2CC[C@]3(O)C(=O)CO)[C@@]2(C)C=CC(=O)C=C12 [methylpridnisolone] |  |  |  |  |  |  | change in minimal lumen diameter (minimal lumen diameter): no effect
t-PA: tissue plasminogen activators | highly specific for the activation of fibrin-bound plasminogen over circulating plasminogen |  |  |  |  |  | 
Alteplase: biosynthetic, glycosylated form of human t-PA |  | Direct | No | no immune response is elicited | Hepatic | 4 to 8 | plasma clearance time and half-life ([3]; in words): rapid plasma clearance time and a short half-life
CN(C)CCCO[C@@H]1[C@H]2OC(C)(C)O[C@H]2O[C@@H]1[C@H](O)CO.Cl [aniprilose hydrochloride] |  |  |  |  |  |  | coronary intimal proliferation [4]: did not prevent
Urokinase | activates fibrin-bound plasminogen as well as circulating plasminogen | Direct | No | does not elicit an immune response | Hepatic | 15 to 20 | 
COc1ccc(C=CC(=O)Nc2ccccc2C(=O)O)cc1OC [tranilast, N-(3,4-dimethoxycinnamoyl) anthranilic acid] |  |  |  |  |  |  | rate of restenosis (restenosis): lower rate of restenosis
Streptokinase: plasminogen activator produced by beta-hemolytic streptococci | activate fibrin-bound plasminogen as well as circulating plasminogen | Indirect | Yes | induce an immune response | Hepatic | 15 to 25 | 
